Assays:
[1] = biological target: TDP-43s short-form TDP-43 (RRM1-RRM2) (Mus musculus, UniProt Q921F2 Q921F2:101-265); experiment: intrinsic fluorescence titration (ex 280, em 350 nm), 1.5 uM protein, 30 mM Tris-HCl pH 8; details: tags: prepared per Kuo et al 2009
[2] = biological target: TDP-43 full-length (oligomers) (Homo sapiens, UniProt Q13148 Q13148:1-414); experiment: intrinsic fluorescence titration (ex 280, em 350 nm), 1.5 uM protein, 30 mM Tris-HCl pH 8; residual binding may come from minor monomer population; details: chain copies: oligomer (stated); 1:1 stoichiometry of TDP-43 and ssDNA from fit
Chain of TDP-43 full-length (oligomers) (Q13148 whole entry, one chain of several): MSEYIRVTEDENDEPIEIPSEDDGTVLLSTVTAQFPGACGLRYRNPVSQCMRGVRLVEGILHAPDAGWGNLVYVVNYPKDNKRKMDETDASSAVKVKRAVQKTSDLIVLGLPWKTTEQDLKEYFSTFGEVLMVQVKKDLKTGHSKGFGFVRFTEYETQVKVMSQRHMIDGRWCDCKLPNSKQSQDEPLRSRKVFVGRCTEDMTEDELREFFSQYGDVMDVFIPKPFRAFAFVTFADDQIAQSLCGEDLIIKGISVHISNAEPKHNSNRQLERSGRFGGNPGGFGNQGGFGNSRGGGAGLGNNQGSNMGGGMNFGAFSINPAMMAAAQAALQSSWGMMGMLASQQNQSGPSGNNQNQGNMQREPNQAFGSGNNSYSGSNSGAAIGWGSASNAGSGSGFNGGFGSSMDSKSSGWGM

Row | Binder | Kd [1] [nM] | Kd [2] [µM]
1 | TGGGTCTCTCTG (ssDNA) [TAR DNA B-site] | 380 | 6.27
2 | CTTTTTGCCTGT (ssDNA) [TAR DNA A-site] | 200 | 7.05

— patent US20170298124A1, “ANTIBODIES AGAINST PATHOLOGICAL FORMS OF TDP-43 AND USES THEREOF” (Academia Sinica, published 2017)
